Data on four molecules can be found in US20230167179A1 (CENTRE NATIONAL DE LA RECHERCHE SCIENTIFIQUE, published 2023).

Test [1] addresses recombinant IL-1RA (Homo sapiens (Human)) (UniProt P18510). Description: Octet BLI, comparison of KD.
Test [2] has the same target. Put plainly: Octet BLI, biotinylated antibody on streptavidin biosensor, IL-1RA at 22.2 nM. (In general: BLI is a label-free optical method that tracks binding on a fibre tip over time.)
Test [3] shares this target. Put plainly: Octet BLI, biotinylated antibody on streptavidin biosensor, IL-1RA at 33.3 nM.
For test [4] the target is unchanged. Description: Octet BLI, biotinylated antibody on streptavidin biosensor, IL-1RA in solution, 1:1 fit.
The target is the same in test [5]. Description: Octet BLI, biotinylated antibody on streptavidin biosensor, IL-1RA at 9.87 nM.
Test [6] shares this target. Put plainly: Octet BLI, biotinylated antibody on streptavidin biosensor, IL-1RA at 14.8 nM.
Test [7] shares this target. Put plainly: Octet BLI, biotinylated antibody on streptavidin biosensor, IL-1RA at 50 nM.
Test [8] concerns the target T1, recombinant IL-1RA (Homo sapiens (Human), UniProt P18510 26-177).
T1 construct: also called IL-1RA antigen; IL-RA
Put plainly: Octet BLI, biotinylated antibody on streptavidin biosensor, IL-1RA at 5.33 nM. On the procedure: (§1) This antigen was tested at 12 nM at the first point, then diluted 1.5 times on 6 points for the first 4 antibodies.

In test [9] the target is T1, recombinant IL-1RA. Put plainly: Octet BLI, biotinylated antibody on streptavidin biosensor, IL-1RA at 2.37 nM. Here is the method: as §1
Test [10] addresses T1, recombinant IL-1RA. Description: Octet BLI, biotinylated antibody on streptavidin biosensor, IL-1RA in solution, 1:1 fit over 4 concentrations. On the procedure:
as §1
For each antibody, 4 concentrations were used to calculate the KD. The constant KD is related to the rate of complex formation (described by the rate constant of association, kon) and the rate of dissociation (described by the rate constant of dissociation, kdis), with KD=kdis/kon. A high affinity interaction is characterized by a low KD, rapid recognition (high kon) and stability of the complexes formed (low kdis). The R2 makes it possible to estimate the reliability of the results obtained (the closer it is to 1, the more reliable the results).

Test [11] deals with T1, recombinant IL-1RA. Description: Octet BLI, biotinylated antibody on streptavidin biosensor, IL-1RA at 3.55 nM. On the procedure:
as §1

T1 sequence (P18510 26-177): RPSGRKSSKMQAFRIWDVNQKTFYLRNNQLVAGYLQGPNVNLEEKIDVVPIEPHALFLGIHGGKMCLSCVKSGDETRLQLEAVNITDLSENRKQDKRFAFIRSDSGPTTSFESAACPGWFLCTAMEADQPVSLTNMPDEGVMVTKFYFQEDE
recombinant IL-1RA (Homo sapiens (Human)), sequence (P18510 26-177): as above

Broadly, the Kd is the constant that tells how readily two partners part at equilibrium. As usually defined, the koff is the rate constant with which the complex falls apart. What is called kon is a measure of how fast the partners come together. For “anti-IL-1RA antibody MAB280 from R&D Systems”, the fold lower affinity than the antibodies selected in examples 2, 3 in test [1] was > 10 times. Further, the Response amounted to 0.105 in test [2]; 0.121 in [3]; 0.0638 in test [5]; 0.0761 in test [6]; 0.151 in test [7]. Besides, in test [4], the Kd stood at 50.8 nM. For the same molecule, in test [4], the off-rate (koff) turned out to be 0.00718 s⁻¹. Besides, the kon in [4] came to 142000 M⁻¹ s⁻¹.

B1: 908.10E12C1 (antibody, IgG1, V domains shown)
VH: EVQLQQSGPELVKPGASVKISCKTSGYTFTEYTMHWVKQSHGKSLEWIGSINPNNGGTNYNQKFKGKATLTVDKSSNTAYMELRSLTSGDSAVYYCARTLYYAMDYWGQGTSVTVSS
VL: DIVMTQSPSSLAMSVGQKVTMSCKSSQSLLNSSNQKNYLAWYQQKPRQSPKLLVYFASTRDSGVPDRFLGSGSGTDFTLTINRVQAEDLADYFCQQHYILPPTFGAGTKLELK
Consider B1, for which the Response in [8] stood at 0.21. Moreover, the Response in [9] is 0.107. In [10], the Kd worked out at 1.76 nM, the off-rate constant (koff) came out at 0.000464 s⁻¹ and the kon came to 264000 M⁻¹ s⁻¹. Further, in test [11], the Response was 0.15.

B2: 908.9E11B6 (antibody, IgG1, V domains shown)
VH: QVQLKESGPGLVAPSQSLSITCTVSGFSLTSYGVHWVRQPPGKGLEWLGVIWAGGVTHYNSALMSRLNISKDNSQSQVFLKMNSLRTDDTAMYYCARGGALLRSHFDYWGQGTTLTVSS
VL: QAVVTQESALTTSPGETVTLTCRSSTGAVTTSNYANWVQEKPDHLFTGLIGGTNNRAPGVPARFSGSLIGDKAALTITGAQTEDEAIYHCALWYSNLWVFGGRTKLTVL
For B2, in test [8], the Response came to 0.229. Besides, in test [9], the Response is 0.101. Also, in test [10], the Kd worked out at 4.86 nM, the koff was 0.000865 s⁻¹ and the kon was 178000 M⁻¹ s⁻¹. The Response in test [11] turned out to be 0.154.

B3: 908.9G5B9 (antibody, V domains shown)
VH: EVQLQQSGAELVKPGASVKLSCTVSGFNITDTYIHWVKQRPEKGLEWIGRIDPANGNTKYDPKLQGKATITADTSSNTAYLQLSSLTSEDTAVYYCARDGTYVYYAMDYWGQGTSVTVSS
VL: DIQMTQSPASLSASVGETVTITCRASENIFIYLAWYQQKQGKSPQLLVYNAKTLAEGVPSRFSGSGSGTQFSLKINSLLPEDFGSYYCQHHYGIPFTFGSGTKLEIE
notes: Biotinylated in the Octet assay; fixed (capture) antibody in the sandwich ELISAs
B3: the Response in test [8] amounted to 0.2; in [9], 0.092; in [11] it was 0.132. In addition, the Kd in test [10] worked out at 3.84 nM. The koff in [10] turned out to be 0.00131 s⁻¹. Also, the kon in [10] is 342000 M⁻¹ s⁻¹.
